Laboratory results from publication PMC10296332, “Vertically-Ordered Mesoporous Silica Film Based Electrochemical Aptasensor for Highly Sensitive Detection of Alpha-Fetoprotein in Human Serum”.

Target: T1, alpha-fetoprotein (AFP) (UniProt P02771 19-609)
T1 sequence: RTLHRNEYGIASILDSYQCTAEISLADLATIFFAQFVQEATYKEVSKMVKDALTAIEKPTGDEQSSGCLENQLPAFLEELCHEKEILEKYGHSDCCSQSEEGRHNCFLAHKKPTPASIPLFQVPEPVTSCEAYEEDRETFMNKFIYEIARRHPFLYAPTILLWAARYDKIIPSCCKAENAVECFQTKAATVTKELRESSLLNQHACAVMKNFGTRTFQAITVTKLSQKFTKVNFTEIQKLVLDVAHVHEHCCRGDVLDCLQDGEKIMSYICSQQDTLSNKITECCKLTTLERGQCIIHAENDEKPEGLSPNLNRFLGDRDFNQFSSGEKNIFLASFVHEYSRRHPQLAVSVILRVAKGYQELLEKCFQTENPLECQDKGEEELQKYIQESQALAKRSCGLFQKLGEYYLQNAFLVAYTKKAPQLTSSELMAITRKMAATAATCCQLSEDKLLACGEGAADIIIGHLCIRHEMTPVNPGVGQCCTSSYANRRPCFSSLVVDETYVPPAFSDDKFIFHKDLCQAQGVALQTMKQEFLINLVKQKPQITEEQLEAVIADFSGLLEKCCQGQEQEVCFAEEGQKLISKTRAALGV
Assay: electrochemical aptasensor (DPV, CV, EIS; Fe(CN)6 3-/4- probe); immobilized aptamer, BSA-blocked; linear 1 pg/mL-1 ug/mL, LOD 0.31 pg/mL (not a Kd); AFP incubated 1 h at 4 C on aptamer electrode, rinsed with 0.01 M PBS (sodium phosphate) pH 7.4; read-out in 2.5 mM K3/K4[Fe(CN)6], 0.1 M KCl
Details: protein: commercial

B1: AFP aptamer (ssDNA)
DNA: GTGACGCTCCTAACGCTGACTCAGGTGCAGTTCTCGACTCGGTCTTGATGTGGGTCCTGTCCGTCCGAACCAATC
modifications: 5'-NH2, coupled to GPTMS epoxy groups on mesoporous silica film
**Q.** Does B1 bind?
**A.** binds
